Assay results from the supplement of paper PMC10567573.

B1: CDC25B (parent)
chain: FVDILESDLKDDDAVPPGMESLIS

Variants of: B1
Assay: protein stability index of a GFP-peptide fusion (GPS, HEK-293T) (PSI 1-6); higher = more stable
Conditions: c terminus: a fixed tail appended
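Further: lentivirally expressed fusions sorted by FACS into six bins by GFP to DsRed ratio, PSI derived from sequencing read proportions per bin multiplied by bin number.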

Variant	protein stability index
FVDILESDLKDRDAVPPGMESLIS [D12R]	2.16
FVDILESDLKDMDAVPPGMESLIS [D12M]	2.08
FVDILESDLKDQDAVPPGMESLIS [D12Q]	2.62
FVDILESDLKDNDAVPPGMESLIS [D12N]	2.67
FVDILESDLKDVDAVPPGMESLIS [D12V]	2.56
FVDILESDLKDFDAVPPGMESLIS [D12F]	2.19
FVDILESDLKDPDAVPPGMESLIS [D12P]	2.66
FVDILESDLKDLDAVPPGMESLIS [D12L]	2.9
FVDILESDLKDEDAVPPGMESLIS [D12E]	2.93
FVDILESDLKDSDAVPPGMESLIS [D12S]	2.96
FVDILESDLKDKDAVPPGMESLIS [D12K]	2.78
FVDILESDLKDTDAVPPGMESLIS [D12T]	2.65
FVDILESDLKDIDAVPPGMESLIS [D12I]	2.21
FVDILESDLKDWDAVPPGMESLIS [D12W]	1.83
FVDILESDLKDYDAVPPGMESLIS [D12Y]	2.69
FVDILESDLKDHDAVPPGMESLIS [D12H]	2.88
FVDILESDLKDADAVPPGMESLIS [D12A]	2.84
FVDILESDLKDCDAVPPGMESLIS [D12C]	2.5
FVDILESDLKDGDAVPPGMESLIS [D12G]	3.01
FVDILESWLKDDDAVPPGMESLIS [D8W]	2.54
FVDILESSLKDDDAVPPGMESLIS [D8S]	2.38
FVDILESNLKDDDAVPPGMESLIS [D8N]	3.18
FVDILESLLKDDDAVPPGMESLIS [D8L]	2.9
FVDILESELKDDDAVPPGMESLIS [D8E]	2.89

Variant	protein stability index
FVDILESRLKDDDAVPPGMESLIS [D8R]	2.7
FVDILESPLKDDDAVPPGMESLIS [D8P]	2.31
FVDILESILKDDDAVPPGMESLIS [D8I]	2.56
FVDILESYLKDDDAVPPGMESLIS [D8Y]	2.62
FVDILESCLKDDDAVPPGMESLIS [D8C]	2.15
FVDILESMLKDDDAVPPGMESLIS [D8M]	2.55
FVDILESHLKDDDAVPPGMESLIS [D8H]	2.79
FVDILESKLKDDDAVPPGMESLIS [D8K]	2.48
FVDILESALKDDDAVPPGMESLIS [D8A]	2.58
FVDILESGLKDDDAVPPGMESLIS [D8G]	2.93
FVDILESQLKDDDAVPPGMESLIS [D8Q]	2.67
FVDILESTLKDDDAVPPGMESLIS [D8T]	2.66
FVDILESFLKDDDAVPPGMESLIS [D8F]	2.32
FVDILESVLKDDDAVPPGMESLIS [D8V]	2.7
FVDILCSDLKDDDAVPPGMESLIS [E6C]	2.13
FVDILQSDLKDDDAVPPGMESLIS [E6Q]	2.89
FVDILKSDLKDDDAVPPGMESLIS [E6K]	2.84
FVDILNSDLKDDDAVPPGMESLIS [E6N]	3.13
FVDILSSDLKDDDAVPPGMESLIS [E6S]	2.54
FVDILGSDLKDDDAVPPGMESLIS [E6G]	2.31
FVDILYSDLKDDDAVPPGMESLIS [E6Y]	2.33
FVDILPSDLKDDDAVPPGMESLIS [E6P]	2.37
FVDILASDLKDDDAVPPGMESLIS [E6A]	2.04
FVDILLSDLKDDDAVPPGMESLIS [E6L]	2.45

Variant	protein stability index
FVDILRSDLKDDDAVPPGMESLIS [E6R]	2.2
FVDILHSDLKDDDAVPPGMESLIS [E6H]	2.55
FVDILFSDLKDDDAVPPGMESLIS [E6F]	2.68
FVDILMSDLKDDDAVPPGMESLIS [E6M]	2.38
FVDILVSDLKDDDAVPPGMESLIS [E6V]	2.19
FVDILISDLKDDDAVPPGMESLIS [E6I]	1.93
FVDILTSDLKDDDAVPPGMESLIS [E6T]	2.58
FVDILWSDLKDDDAVPPGMESLIS [E6W]	2.32
FVDILDSDLKDDDAVPPGMESLIS [E6D]	2.88
FVDILENDLKDDDAVPPGMESLIS [S7N]	2.57
FVDILEPDLKDDDAVPPGMESLIS [S7P]	2.83
FVDILEVDLKDDDAVPPGMESLIS [S7V]	2.17
FVDILEYDLKDDDAVPPGMESLIS [S7Y]	2.77
FVDILEGDLKDDDAVPPGMESLIS [S7G]	3.22
FVDILEEDLKDDDAVPPGMESLIS [S7E]	3.79
FVDILEDDLKDDDAVPPGMESLIS [S7D]	3.67
FVDILETDLKDDDAVPPGMESLIS [S7T]	2.85
FVDILEFDLKDDDAVPPGMESLIS [S7F]	1.9
FVDILERDLKDDDAVPPGMESLIS [S7R]	2.47
FVDILEIDLKDDDAVPPGMESLIS [S7I]	2.3
FVDILELDLKDDDAVPPGMESLIS [S7L]	2.21
FVDILEKDLKDDDAVPPGMESLIS [S7K]	2.6
FVDILEWDLKDDDAVPPGMESLIS [S7W]	1.36
FVDILECDLKDDDAVPPGMESLIS [S7C]	3.23

Variant	protein stability index
FVDILEADLKDDDAVPPGMESLIS [S7A]	2.79
FVDILEMDLKDDDAVPPGMESLIS [S7M]	2.6
FVDILEHDLKDDDAVPPGMESLIS [S7H]	2.6
FVDILEQDLKDDDAVPPGMESLIS [S7Q]	3.19
FVDWLESDLKDDDAVPPGMESLIS [I4W]	2.29
FVDQLESDLKDDDAVPPGMESLIS [I4Q]	3.75
FVDALESDLKDDDAVPPGMESLIS [I4A]	4.18
FVDCLESDLKDDDAVPPGMESLIS [I4C]	3.91
FVDFLESDLKDDDAVPPGMESLIS [I4F]	2.8
FVDTLESDLKDDDAVPPGMESLIS [I4T]	3.37
FVDELESDLKDDDAVPPGMESLIS [I4E]	4.52
FVDPLESDLKDDDAVPPGMESLIS [I4P]	4.03
FVDDLESDLKDDDAVPPGMESLIS [I4D]	4.54
FVDMLESDLKDDDAVPPGMESLIS [I4M]	2.47
FVDNLESDLKDDDAVPPGMESLIS [I4N]	4.34
FVDGLESDLKDDDAVPPGMESLIS [I4G]	3.46
FVDSLESDLKDDDAVPPGMESLIS [I4S]	4.05
FVDRLESDLKDDDAVPPGMESLIS [I4R]	3.11
FVDLLESDLKDDDAVPPGMESLIS [I4L]	2.75
FVDVLESDLKDDDAVPPGMESLIS [I4V]	3.13
FVDYLESDLKDDDAVPPGMESLIS [I4Y]	2.52
FVDHLESDLKDDDAVPPGMESLIS [I4H]	3
